# Measurements as given in patent publication US11111484B2, “Streptococcus bacteriophage lysins for detection and treatment of gram positive bacteria” (priority 2011, dated 2021).
# Entries after “also recorded” stand apart in the source; their conditions may differ. Where two headings read alike, the source gives them in different places.
# B1: PlySs2: Streptococcus suis prophage lysin, SEQ ID NO:3; N-terminal CHAP domain and C-terminal SH3-type 5 domain (protein, listed as Streptococcus suis)
# chain: MTTVNEALNNVRAQVGSGVSVGNGECYALASWYERMISPDATVGLGAGVGWVSGAIGDTISAKNIGSSYNWQANGWTVSTSGPFKAGQIVTLGATPGNPYGHVVIVEAVDGDRLTILEQNYGGKRYPVRNYYSAASYRQQVVHYITPPGTVAQSAPNLAGSRSYRETGTMTVTVDALNVRRAPNTSGEIVAVYKRGESFDYDTVIIDVNGYVWVSYIGGSGKRNYVATGATKDGKRFGNAWGTFK
# B2: ΔPlySs1: truncated PlySs1 lysin, SEQ ID NO:2, N-terminal 254 amino acids: only N-terminal enzymatic and central binding domains (protein, listed as Streptococcus suis)
# chain: MTINLETSIRWMSDRVGKVSYSMDYRNGPNSYDCSSAVYYALMAGGAISAGWAVNTEYMHDWLIRNGYVLVAENKPFNAQRHDVCILGKRGYSSGAGGHVVIFVDNVNVIHCNYARNGISIDNYNQVHRGMYYYLYRPANQPSISNKSLDQLVKETLAGVHGNGDTRKASLGSQYEAVMAVINGKASASEKSDEELAREVLAGKHGAGEDRKRSLGPRYEPVQAKVNELLKAKEKPSETAKNEPQTVQFKEDGDL
# How the values were obtained:
# S. suis strain 7997 = test: PlySs2 OD600 lytic activity test, various concentrations; type: cell-based, Streptococcus suis
# MRSA = MRSA wound infection model in rats; conditions: dorsal wound; 500 μL + 100 μL PlySs2 at 10 mg/mL; after 10 days
# E. coli = test: MIC studies; type: cell-based, Escherichia coli; conditions: E. coli negative control
# Procedure: The Wiegand, et al. protocol to determine minimum inhibitory concentrations was followed with adjustments detailed below. A final suspension of ≈5×10^5 cells/ml in MHB (or BHI for S. pyogenes) resulted after Sterile-filtered lysin or vehicle was added at the appropriate concentration. These tests were distributed within a 96-well microtiter plate. The MIC's were determined, in this experiment, by detection of pellet formation in the bottom of rounded polysterene plate wells. They were also corroborated colorimetrically with alamarBlue®.
# [1] = test system: S. pyogenes strain MGAS5005; test: murine septicemia model, S. pyogenes infection alone; type: in vivo, FVB/NJ mice; conditions: PlySs2 2 mg
# Procedure: The Rockefeller University's Institutional Animal Care and Use Committee approved all in vivo protocols. A systemic infection model described in Daniel, A. et al., was used to test for the in vivo efficacy of PlySs2 against multiple gram-positive bacteria. Briefly, 4-5 week old female FVB/NJ mice (weight range 15 to 20 g) were obtained from The Jackson Laboratory (Bar Harbor, Me.). After a period of acclimation, mice were injected intraperitoneally (IP) with 0.5 ml of mid log-phase (OD600 0.5) bacteria diluted with 5% hog gastric mucin (Sigma) in saline. Bacterial suspensions contained ˜5×10^5 CFU/ml of MW2, a PVL toxin-encoding MRSA strain, ˜1×10^7 of MGAS5005, an M1 serotype of Streptococcus pyogenes that is virulent in humans and mice (Musser), or a combination of both bacteria simultaneously at the above concentrations for the mix infection experiments. Actual bacterial inoculation titers were calculated by serial dilution and plating to Columbia blood agar plates for each experiment. Mice became bacteremic within one to three hours and contained MRSA and/or S. pyogenes in their organs (including spleen, liver, kidney, and heart/blood) ([50], and unpublished observations). […] The survival rate for each experimental group was monitored every 12 hours for the first 24 hours then every 24 hours up to 10 days post-infection. The data were statistically analyzed by Kaplan Meier Survival curves and a Logrank test performed for 95% confidence intervals using the Prism computer program (GraphPad Software; La Jolla, Calif.).
# To determine if the broad lytic activity of PlySs2 could provide in vivo protection from infection with gram-positive pathogens, either alone or as a mixed infection, FVB/NJ mice were intraperitoneally injected with ˜5×10^5 CFU of MRSA strain MW2, ˜1×10^7 of S. pyogenes strain MGAS5005 and/or both bacteria simultaneously at the concentrations above. […] Mice were then monitored for survival over ten days. […]
# S. aureus strains = test: PlySs2 lytic activity against species and strains (FIG. 25); type: cell-based, Staphylococcus aureus; conditions: all tested S. aureus strains; 32 μg/ml, 60 minutes
# Procedure: FIG. 25 provides PlySs2 activity against different species and strains. Log-phase cultures were exposed to 32 μg/ml PlySs2 for 60 minutes in phosphate buffer. The final OD600 of the treated samples were divided by the final OD600 of the untreated samples to generate the normalized values above. Multiple Staphylococci (including, but not limited to: MRSA, MSSA, and VISA), Streptococci, Listeria, Enterococci, and Bacilli were tested for susceptibility to PlySs2 activity. Escherichia and Pseudomonas were tested as Gram-negative controls.
# [2] = test system: cultures from the oral cavities of two rats; test: rat oral cavity microbiota study, drops on culture lawns; type: cell-based, rat oral bacteria; conditions: 10 μL PlySs2 drops on BHI agar lawns; the one culture confirmed as S. aureus
# M. luteus 4698 = test: ΔPlySs1 OD600 lysis, 1 hr, optimal buffering conditions; type: cell-based
# S. aureus RN4220 = test: as above; type: cell-based, Staphylococcus aureus
# B. anthracis ΔSterne = type: cell-based, Bacillus anthracis
# S. mutans U159 = test: ΔPlySs1 OD600 lysis, 1 hr, optimal buffering conditions; type: cell-based, Streptococcus mutans
# S. salivarius 9222 = test: as above; type: cell-based
# S. equi 9528 = test: as above; type: cell-based, Streptococcus equi
# [3] = test system: Group E streptococci K131; test: as above; type: cell-based
# B. cereus 14579 = test: as above; type: cell-based, Bacillus cereus
molecule,measurement,setting,value
B1,concentration giving acute lytic activity,S. suis strain 7997,≥ 8 µg/mL
same,drop of CFU's of MRSA compared with control rats,MRSA,3-4 logs
same,minimum inhibitory concentration (MIC),E. coli,too high to calculate; also recorded: immeasurable
same,mice died at day three (dead/total),[1],1/16
same,survival over 10 days,[1]; PlyC 1 mg,94%
same,survival over 10 days (mice surviving/total),[1]; PlyC 1 mg,15/16
same,susceptibility to PlySs2 lysis,S. aureus strains,highly susceptible
same,clearing zone around drops on lawns of 6 rat oral cultures,[2],only appeared on one culture
B2,lysis value after 1 hr (treated/untreated OD600 ratio),M. luteus 4698; 6.5 μg/ml,0.84
same,lysis value after 1 hr (treated/untreated OD600 ratio),M. luteus 4698; 13 μg/ml,0.90
same,lysis value after 1 hr (treated/untreated OD600 ratio),M. luteus 4698; 30 μg/ml,0.83
same,lysis value after 1 hr (treated/untreated OD600 ratio),M. luteus 4698; 65 μg/ml,0.87
same,lysis value after 1 hr (treated/untreated OD600 ratio),M. luteus 4698; 130 μg/ml,0.82
same,lysis value after 1 hr (treated/untreated OD600 ratio),S. aureus RN4220; 6.5 μg/ml,0.89
same,lysis value after 1 hr (treated/untreated OD600 ratio),S. aureus RN4220; 13 μg/ml,0.78
same,lysis value after 1 hr (treated/untreated OD600 ratio),S. aureus RN4220; 30 μg/ml,0.55
same,lysis value after 1 hr (treated/untreated OD600 ratio),S. aureus RN4220; 65 μg/ml,0.31
same,lysis value after 1 hr (treated/untreated OD600 ratio),S. aureus RN4220; 130 μg/ml,0.10
same,lysis value after 1 hr (treated/untreated OD600 ratio),B. anthracis ΔSterne; 6.5 μg/ml,1.02
same,lysis value after 1 hr (treated/untreated OD600 ratio),B. anthracis ΔSterne; 30 μg/ml,1.02
same,lysis value after 1 hr (treated/untreated OD600 ratio),B. anthracis ΔSterne; 65 μg/ml,0.98
same,lysis value after 1 hr (treated/untreated OD600 ratio),B. anthracis ΔSterne; 130 μg/ml,0.90
same,lysis value after 1 hr (treated/untreated OD600 ratio),S. mutans U159; 6.5 μg/ml,0.95
same,lysis value after 1 hr (treated/untreated OD600 ratio),S. mutans U159; 13 μg/ml,0.99
same,lysis value after 1 hr (treated/untreated OD600 ratio),S. mutans U159; 30 μg/ml,0.94
same,lysis value after 1 hr (treated/untreated OD600 ratio),S. mutans U159; 65 μg/ml,0.76
same,lysis value after 1 hr (treated/untreated OD600 ratio),S. mutans U159; 130 μg/ml,0.85
same,lysis value after 1 hr (treated/untreated OD600 ratio),S. salivarius 9222; 6.5 μg/ml,0.80
same,lysis value after 1 hr (treated/untreated OD600 ratio),S. salivarius 9222; 13 μg/ml,0.76
same,lysis value after 1 hr (treated/untreated OD600 ratio),S. salivarius 9222; 30 μg/ml,0.56
same,lysis value after 1 hr (treated/untreated OD600 ratio),S. salivarius 9222; 65 μg/ml,0.53
same,lysis value after 1 hr (treated/untreated OD600 ratio),S. salivarius 9222; 130 μg/ml,0.37
same,lysis value after 1 hr (treated/untreated OD600 ratio),S. equi 9528; 6.5 μg/ml,0.66
same,lysis value after 1 hr (treated/untreated OD600 ratio),S. equi 9528; 13 μg/ml,0.45
same,lysis value after 1 hr (treated/untreated OD600 ratio),S. equi 9528; 30 μg/ml,0.25
same,lysis value after 1 hr (treated/untreated OD600 ratio),S. equi 9528; 65 μg/ml,0.19
same,lysis value after 1 hr (treated/untreated OD600 ratio),S. equi 9528; 130 μg/ml,0.16
same,lysis value after 1 hr (treated/untreated OD600 ratio),[3]; 6.5 μg/ml,0.69
same,lysis value after 1 hr (treated/untreated OD600 ratio),[3]; 13 μg/ml,0.50
same,lysis value after 1 hr (treated/untreated OD600 ratio),[3]; 30 μg/ml,0.33
same,lysis value after 1 hr (treated/untreated OD600 ratio),[3]; 65 μg/ml,0.22
same,lysis value after 1 hr (treated/untreated OD600 ratio),[3]; 130 μg/ml,0.15
same,lysis value after 1 hr (treated/untreated OD600 ratio),B. cereus 14579; 6.5 μg/ml,0.93
same,lysis value after 1 hr (treated/untreated OD600 ratio),B. cereus 14579; 13 μg/ml,0.92
same,lysis value after 1 hr (treated/untreated OD600 ratio),B. cereus 14579; 30 μg/ml,0.86
same,lysis value after 1 hr (treated/untreated OD600 ratio),B. cereus 14579; 65 μg/ml,0.90
same,lysis value after 1 hr (treated/untreated OD600 ratio),B. cereus 14579; 130 μg/ml,0.86
